# Laboratory results: US9062100B2, “Anti-human TROP-2 antibody having anti-tumor activity in vivo” (LIVTECH, INC., dated 2015)
# T1: human TROP-2 (hTROP-2) (human)
# T1 chain: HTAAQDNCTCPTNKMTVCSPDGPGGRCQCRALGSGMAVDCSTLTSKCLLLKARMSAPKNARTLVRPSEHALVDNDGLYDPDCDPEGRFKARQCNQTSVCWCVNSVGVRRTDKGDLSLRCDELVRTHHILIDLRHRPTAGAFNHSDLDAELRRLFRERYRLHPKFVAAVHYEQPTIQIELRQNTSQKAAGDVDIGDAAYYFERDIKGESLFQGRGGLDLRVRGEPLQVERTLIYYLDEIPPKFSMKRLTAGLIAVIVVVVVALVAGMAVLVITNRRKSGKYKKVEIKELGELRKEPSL
# T2: Table 11 peptide No. 7 (human)
# T2 peptide: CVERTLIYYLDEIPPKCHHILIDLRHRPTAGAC
# T3: Table 11 peptide No. 2 (human)
# T3 peptide: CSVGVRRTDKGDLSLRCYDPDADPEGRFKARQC
# T4: Table 11 peptide No. 20 (human)
# T4 peptide: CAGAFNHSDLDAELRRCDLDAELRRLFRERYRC
# T5: Table 11 peptide No. 3 (human)
# T5 peptide: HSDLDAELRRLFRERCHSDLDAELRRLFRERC
# T6: Table 11 peptide No. 12 (human)
# T6 peptide: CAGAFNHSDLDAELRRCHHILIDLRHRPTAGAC
# T7: Table 11 peptide No. 11 (human)
# T7 peptide: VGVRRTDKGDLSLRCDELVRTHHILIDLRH
# T8: Table 11 peptide No. 15 (human)
# T8 peptide: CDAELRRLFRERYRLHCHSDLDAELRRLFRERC
# T9: Table 11 peptide No. 8 (human)
# T9 peptide: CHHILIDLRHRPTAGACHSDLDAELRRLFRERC
# T10: Table 11 peptide No. 22 (human)
# T10 peptide: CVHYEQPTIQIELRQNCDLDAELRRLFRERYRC
# T11: Table 11 peptide No. 21 (human)
# T11 peptide: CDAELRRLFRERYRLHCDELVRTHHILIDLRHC
# T12: Table 11 peptide No. 23 (human)
# T12 peptide: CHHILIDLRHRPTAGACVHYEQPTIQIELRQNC
# T13: Table 11 peptide No. 1 (human, not fully specified)
# T13 peptide: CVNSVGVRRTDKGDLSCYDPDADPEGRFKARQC
# T14: Table 11 peptide No. 25 (human)
# T14 peptide: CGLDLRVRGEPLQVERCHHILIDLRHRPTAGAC
# T15: Table 11 peptide No. 18 (human)
# T15 peptide: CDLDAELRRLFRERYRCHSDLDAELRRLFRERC
# T16: Table 11 peptide No. 10 (human)
# T16 peptide: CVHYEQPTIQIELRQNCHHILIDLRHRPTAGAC
# T17: Table 11 peptide No. 4 (human)
# T17 peptide: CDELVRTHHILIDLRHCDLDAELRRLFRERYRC
# T18: Table 11 peptide No. 26 (human)
# T18 peptide: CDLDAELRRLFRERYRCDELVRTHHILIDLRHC
# T19: Table 11 peptide No. 14 (human)
# T19 peptide: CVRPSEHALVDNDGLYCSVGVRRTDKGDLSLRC
# T20: Table 11 peptide No. 9 (human)
# T20 peptide: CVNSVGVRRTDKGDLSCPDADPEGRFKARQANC
# T21: Table 11 peptide No. 6 (human)
# T21 peptide: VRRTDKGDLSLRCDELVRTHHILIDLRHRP
# T22: Table 11 peptide No. 17 (human)
# T22 peptide: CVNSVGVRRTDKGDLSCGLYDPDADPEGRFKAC
# T23: Table 11 peptide No. 19 (human)
# T23 peptide: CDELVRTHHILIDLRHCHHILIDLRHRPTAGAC
# T24: Table 11 peptide No. 13 (human)
# T24 peptide: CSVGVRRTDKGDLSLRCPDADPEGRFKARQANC
# T25: recombinant protein of the extracellular region of hTROP-2 (human)
# T25 sequence: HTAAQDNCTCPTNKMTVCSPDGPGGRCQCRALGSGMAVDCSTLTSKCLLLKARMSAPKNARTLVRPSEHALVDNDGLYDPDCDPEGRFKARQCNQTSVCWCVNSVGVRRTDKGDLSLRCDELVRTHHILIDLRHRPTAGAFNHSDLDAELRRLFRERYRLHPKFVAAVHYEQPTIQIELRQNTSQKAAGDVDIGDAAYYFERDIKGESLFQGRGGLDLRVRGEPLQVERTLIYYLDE
# How the values were obtained:
# [1] = molecular target: T1, human TROP-2 (hTROP-2); test: FACS on BxPC-3 cells
# [2] = molecular target: Table 11 peptide No. 16 (human); test: PEPSCAN CLIPS peptide ELISA
# Table 11 peptide No. 16 (human), sequence (peptide, as listed by the source): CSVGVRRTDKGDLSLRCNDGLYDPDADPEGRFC
# [3] = molecular target: T2, Table 11 peptide No. 7; test: PEPSCAN CLIPS peptide ELISA
# [4] = molecular target: T3, Table 11 peptide No. 2; test: PEPSCAN CLIPS peptide ELISA
# [5] = molecular target: T4, Table 11 peptide No. 20; test: PEPSCAN CLIPS peptide ELISA
# [6] = molecular target: T5, Table 11 peptide No. 3; test: PEPSCAN CLIPS peptide ELISA
# [7] = molecular target: T6, Table 11 peptide No. 12; test: PEPSCAN CLIPS peptide ELISA
# [8] = molecular target: T7, Table 11 peptide No. 11; test: PEPSCAN CLIPS peptide ELISA
# [9] = molecular target: T8, Table 11 peptide No. 15; test: PEPSCAN CLIPS peptide ELISA
# [10] = molecular target: T9, Table 11 peptide No. 8; test: PEPSCAN CLIPS peptide ELISA
# [11] = molecular target: T10, Table 11 peptide No. 22; test: PEPSCAN CLIPS peptide ELISA
# [12] = molecular target: T11, Table 11 peptide No. 21; test: PEPSCAN CLIPS peptide ELISA
# [13] = molecular target: Table 11 peptide No. 24 (human); test: PEPSCAN CLIPS peptide ELISA
# Table 11 peptide No. 24 (human), sequence (peptide, as listed by the source): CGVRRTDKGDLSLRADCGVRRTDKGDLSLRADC
# [14] = molecular target: T12, Table 11 peptide No. 23; test: PEPSCAN CLIPS peptide ELISA
# [15] = molecular target: T13, Table 11 peptide No. 1; test: PEPSCAN CLIPS peptide ELISA
# [16] = molecular target: T14, Table 11 peptide No. 25; test: PEPSCAN CLIPS peptide ELISA
# [17] = molecular target: T15, Table 11 peptide No. 18; test: PEPSCAN CLIPS peptide ELISA
# [18] = molecular target: T16, Table 11 peptide No. 10; test: PEPSCAN CLIPS peptide ELISA
# [19] = molecular target: T17, Table 11 peptide No. 4; test: PEPSCAN CLIPS peptide ELISA
# [20] = molecular target: T18, Table 11 peptide No. 26; test: PEPSCAN CLIPS peptide ELISA
# [21] = molecular target: T19, Table 11 peptide No. 14; test: PEPSCAN CLIPS peptide ELISA
# [22] = molecular target: T20, Table 11 peptide No. 9; test: PEPSCAN CLIPS peptide ELISA
# [23] = molecular target: T21, Table 11 peptide No. 6; test: PEPSCAN CLIPS peptide ELISA
# [24] = molecular target: T22, Table 11 peptide No. 17; test: PEPSCAN CLIPS peptide ELISA
# [25] = molecular target: T23, Table 11 peptide No. 19; test: PEPSCAN CLIPS peptide ELISA
# [26] = molecular target: T24, Table 11 peptide No. 13; test: PEPSCAN CLIPS peptide ELISA
# [27] = molecular target: T25, recombinant protein of the extracellular region of hTROP-2 (human); test: ELISA of free antibody after equilibration with antigen in solution
# [28] = molecular target: T1, human TROP-2 (hTROP-2); test: FACS on PK-59 cells
binder,measurement,setting,value
"anti-hTROP-2 monoclonal antibody T6-16 (antibody, V domains shown) VH: EVQLQQSGPELVKPGASVKISCKASGYTFTDYNMHWVKQSHGKNLEWIGYIYPYNGGTGYNQRFKSRATMTVDKSSSTAYMELRSLTSDDSAVYYCAREDYGSSPSYAMDYWGQGTSVIVSS VL: DVVMTQTPLSLPVSLGDQASISCRSSQSLVHGNGNTYLHWYLQKPGQSPKLLIYKVSNRFSGVPDRFSGSGSGTDFTLKISRVEAEDLGVYFCSQTTHVPTFGSGTKLEIK","mean fluorescence intensity, times that with PE-labeled anti-mouse IgG only",[1],25 times
same,binding of T6-16,[2],559
same,binding of T6-16,[3],626
same,binding of T6-16,[4],786
same,binding of T6-16,[5],529
same,binding of T6-16,[6],714
same,binding of T6-16,[7],592
same,binding of T6-16,[8],601
same,binding of T6-16,[9],566
same,binding of T6-16,[10],620
same,binding of T6-16,[11],526
same,binding of T6-16,[12],527
same,binding of T6-16,[13],524
same,binding of T6-16,[14],524
same,binding of T6-16,[15],1070
same,binding of T6-16,[16],521
same,binding of T6-16,[17],534
same,binding of T6-16,[18],602
same,binding of T6-16,[19],713
same,binding of T6-16,[20],516
same,binding of T6-16,[21],573
same,binding of T6-16,[22],611
same,binding of T6-16,[23],670
same,binding of T6-16,[24],553
same,binding of T6-16,[25],534
same,binding of T6-16,[26],585
same,Kd,[27],4.3 pM
same,"mean fluorescence intensity, times that with PE-labeled anti-mouse IgG only",[28],59 times
